Values joined by “and” are separate entries in the source; they are usually repeats but may differ in a detail not shown here. Equal entries are not always repeated.

Our source for the stoichiometry N values is paper doi:10.1101/2023.06.05.543797.

Common to all, as to details: scale: KASH6 per SUN1
Assay [1] deals with SUN domain of human SUN1 (amino-acids 616-812) (human). As to the kind of experiment: SEC-MALS. In general terms: In gel filtration, larger molecules generally elute earlier.
Assay [2] has the same target. As to the kind of experiment: crystal structure.
Assay [3] has the same target. As to the kind of experiment: SEC-MALS. The source holds these as a separate data set.
Assay [4] shares this target. The assay can be described thus: SEC-MALS. The source holds these as a separate data set.

As for TGQLFQKSVDAAPTQQEDSWTSLEHILWPFTRLRHNGPPPV [KASH domain of human JAW1/LRMP (amino-acids 515-555)], the stoichiometry N in assay [1] was 1; in assay [2], 0.67; in assay [3] it was 0.67 and 1.
Consider EDSWTSLEHILWPFTRLRHNGPPPV [KASH6 core (human JAW1/LRMP amino-acids 531-555)], for which the stoichiometry N in assay [4] is 0.67; in assay [1], 1.

The term stoichiometry N denotes the number of molecules, sites or subunits per partner or assembly.
